Legend:
Format in all cases: biochemical
[1] = Reactions on alkanes, total turnovers (Table 18): hexane; details: hexane (6 C atoms)
Description: (§1) Reactions on alkanes. Reactions with alkanes from pentane to decane were carried out at 3 mL-scale using 100 mM KPi pH 8.0 buffer containing 2% ethanol (to allow alkane solubilization) and purified protein. 2.5 mL KPi buffer were added with 60 μL of 90 mM alkane solution in ethanol (final conc.=1.8 mM), 150 μL enzyme solution at 1 μM (final conc.=50 nM), and 300 μL NADPH regeneration solution (100 units/mL isocitrate dehydrogenase, 70 mg/mL isocitrate, 1.5 mg/ml NADP^+). Vials were sealed and stirred for 24 hours at 4° C. 1 mL-aliquot of the reaction was removed, added with 10 μl internal standard (25 mM 1-bromohexane in ethanol), and extracted with 200 μl chloroform (30 sec vortexing, 1 min centrifugation at 10000 g). The organic phase was removed and analyzed by gas chromatography. Reactions with ethane, propane, and butane were carried out as described for longer alkanes with the only difference that alkane-saturated KPi buffer was used. Propane reactions with variants from HL5 and L9 libraries were performed on 1 mL-scale reaction using 20 nM enzyme to reduce oxygen limitation. Propane and butane reactions were analyzed by direct injection of reaction solution on the GC using 1-pentanol as internal standard. Ethane reaction products were functionalized (see below) and analyzed by GC using 1-butanol as internal standard. All measurements were performed in triplicate.
(§2) Products from alkane reactions were identified and quantified by gas chromatography using authentic standards and calibration curves with internal standards. For the reactions with alkanes from pentane to decane, GC analyses were carried out using a Shimadzu GC-17A gas chromatograph, Agilent HP5 column (30 m×0.32 mm×0.1 μm film), 1 μL injection, FID detector, and the following separation program: 250° C. inlet, 250° C. detector, 50° C. oven for 3 min, 5° C./min gradient to 100° C., 25° C./min gradient to 230° C., and 230° C. for 3 min. For butane and propane (TTN) reactions, GC analyses were carried out using a Hewlett-Packard 5890 Series II Plus gas chromatograph, Supelco SPB-1 column (60 m×0.52 mm×0.5 μm film), 0.5 μL injection, FID detector, and the following separation program: 250° C. inlet, 275° C. detector, 80° C. oven for 2 min, 10° C./min gradient to 110° C., 25° C./min gradient to 275° C., and 275° C. for 2.5 min. For ethane and propane (rate) reactions, analysis of reaction mixtures was carried out by derivatization to alkyl nitrites followed by GC-ECD analysis. For laurate, reaction product analysis was carried out by derivatization with N-methyl-N-trimethylsilylheptafluorobutyramide followed by extraction with hexane. Organic solutions were analyzed by FID-GC.
(§3) TTNs for each variant-substrate pair were determined using standardized reaction conditions (identical enzyme and substrate concentration, incubation time, cofactor regeneration system) (Table 18). TTN values were used to assess performance because TTN is a cumulative measure of both catalytic and coupling efficiency and because mutants were selected based on improvement in this property. To facilitate comparison among the variants, TTNs were normalized to the highest value in the series (MTN=Maximal Turnover Number) and plotted for the increasing-sized substrates (FIG. 38). A gradual shift of the enzyme's substrate preference during laboratory evolution is evident from these profiles. The marginal activity of wild-type BM3 on these substrates (MTN=150) is restricted to the long-chain alkanes, where it is a promiscuous function of BM3's high C12-C20 fatty acid hydroxylase activity. In the first evolutionary intermediates, substrate preference centers on medium-chain alkanes […], reflecting their selection for activity on octane. In 35E11, selected for activity on propane, preference still centers on C6-C8 alkanes but now extends towards the shorter ones, including propane. Propane activity becomes prevalent with the transition from variant ETS8 to 19A12. […]

[2] = Reactions on alkanes, total turnovers (Table 18): nonane; details: nonane (9 C atoms)
Description: as §1, §2, §3

[3] = Reactions on alkanes, total turnovers (Table 18): ethane; details: ethane (2 C atoms)
Description: as §1, §2, §3

[4] = Kinetic constants for n-alkanes: octane
Description: Rate measurements. Initial rates of product formation were determined at 25° C. in 100 mM KPi pH 8.0 buffer using purified protein (100 nM) and a substrate concentration of 1.6 mM. In a 5 mL-vial, 20 μL of alkane solution (in ethanol) were dissolved in 400 μL KPi buffer, to which 500 μL enzyme solution at 100-200 nM was added. Reaction was initiated by adding 100 μL of 5 mM NADPH solution, followed by stirring at 300 rpm for 1 minute, and quenched by adding 200 μL chloroform and stirring at 800 rpm for 10 sec. Solutions were transferred to an Eppendorf tube, to which internal standard (10 μL 25 mM 1-bromohexane in ethanol) was added. Tubes were vortexed for 10 sec and centrifuged for 30 sec at 10,000 g. Organic phase was removed and analyzed by GC. For propane, reactions were carried out in a 5 mL-scale using 100-400 nM purified enzyme, propane-saturated buffer (propane concentration≈1.6 mM) and a final NADPH concentration of 500 μM. Reactions were stopped by addition of 200 μL H2SO4 conc. and analyzed by derivatization to alkyl nitrites followed by GC-ECD analysis as described below.
as §2
To further investigate the evolution of substrate specificity, kinetic constants for the C5 to C8 alkanes were determined from Michaelis-Menten plots (Table 19). The preference of 35E11 and its evolutionary predecessors for medium-chain alkanes is indicated by their high C8/C5 specificities ((kcat/Km)8/(kcat/Km)5˜100), where Km appears to be the major contributing factor. C8/C5 specificity decreases to ˜5 in the immediate precursors of P450PMO and then switches altogether to the smaller alkane, becoming 0.4 in P450PMO. In P450PMO, catalytic efficiency is highest on propane and decreases along the alkane series, driven by decreasing kcat.

[5] = Reactions on alkanes, total turnovers (Table 18): pentane; details: pentane (5 C atoms)
Description: as §1, §2, §3

[6] = Reactions on alkanes, total turnovers (Table 18): butane
Description: as §1, §2, §3

[7] = TTN normalized to the highest value of the variant's series
[8] = total turnovers, standardized reaction conditions

B1: P450PMO: P450 BM-3 variant, SEQ ID NO:125; 7-7 plus G443A and D698G; propane monooxygenase (protein)
chain: TIKEMPQPKTFGELKNLPLLNTDKPVQALMKIADELGEIFKFEAPGCVTRYISSQRLIKEACDESRFDKNLSQELKFFRDFGGDGLFTSWTHEINWKKAHNILLPSFSQQAMKGYHAMMVDIAVQLVQKWERLNADEHIEVSEDMTRLTLDTIGLCGFNYRFNSFYRDQPHPFIISMVRALDEVMNKPQRANPDDPAYDENKRQCQEDIKVMNDLVDKIIADRKARGEQSDDLLTQMLNGKDPETGEPLDDGNISYQIITFLIAGHETTSGLLSFALYFLVKNPHVLQKVVEEAARVLVDPVPSYKQVKQLKYVGMVLNEALRLWPTFPAFSLYAKEDTVLGGEYPLEKGDEVMVLIPQLHRDKTVWGDDVEEFRPERFENPSAIPQHAFKPFGNGQRACIGQQFALHEATLVLGMMLKHFDFEDHTNYELDIKETLTLKPEAFVVKAKSKKIPLGGIPSPSTGQSAKKVRKKAENAHNTPLLVLYGSNMGTAEGTARDLADIAMSKGFAPQVATLDSHAGNLPREGAVLIVTASYNGHPPDNAKQFVDWLDQASADEVKGVRYSVFGCGDKNWATTYQKVPAFIDETLAAKGAENIADRGEADASDDFEGTYEEWREHMWSDVAAYFNLDIENSEDNKSTLSLQFVDSAADMPLAKMHGAFSTNVVASKELQQPGSARSTRHLEIELPKEASYQEGGHLGVIPRNYEGTVNRVTARFGLDASQQIRLEAEEEKLAHLPLAKTVSVEELLQYVELQDPVTRTQLRAMAAKTVCPPHKVELEALLEKQAYKEQVLAKRLTMLELLEKYPACEMKFSEFIALLPSIRPRYYSISSSPRVDEKQASITVSVVSGEAWSGYGEYKGIASNYLAELQEGDTITCFISTPQSEFTLPKDPETPLIMVGPGTGVAPFRGFVQARKQLKEQGQSLGEAHLYFGCRSPHEDYLYQEELENAQSEGIITLHTAFSRMPNQPKTYVQHVMEQDGKKLIELLDQGAHFYICGDGSQMAPAVEATLMKSYADVHQVSEADARLWLQQLEEKGRYAKDVWAG
modifications: Mutant P450PMO protein sequence
notes: 7-7 plus G443A and D698G; propane monooxygenase
For B1, the “% rel. act.” value [1, 7] was 12.7%, the TTN [1, 8] was 2600 ± 205 and the “% rel. act.” value [2, 7] was 11.7%. The TTN [2, 8] was 2390 ± 30, the “% rel. act.” value [3, 7] was 12.4% and the TTN [3, 8] was 2550 ± 250. For the same molecule, the Km [4] was 185 ± 40 µM, the kcat [4] was 0.217 ± 0.067 s⁻¹ and the “% rel. act.” value [5, 7] was 4.9%. For the same molecule, the TTN [5, 8] was 1000 ± 110, the “% rel. act.” value ([6]; butane (4 C atoms), TTN normalized to the highest value of the variant's series) was 30.2% and the TTN ([6]; butane (4 C atoms), total turnovers, standardized reaction conditions) was 6200 ± 400. The “drop in activity when a single methylene unit is added to the substrate” value ([6]; relative to propane) was 90%.

— patent US12258605B2, “Alkane oxidation by modified hydroxylases” (The California Institute of Technology, priority 2005, dated 2025)
